Source: the DeepSol protein solubility set

Experiment: soluble on expression in E. coli; label from the status in PepcDB or PDB records

Row | Sequence | soluble on expression in E. coli
1 | MSLEIDADRFFKLFDSSVQGLRQCRLISAAFELGVFKALEVPLSAGALAEKIGCDPALMPHFCEALHSLGLLDRFEEGISEEKENAQIAVKGTGEAEGKEKPGDEPGDRIKNDGAVYFVSELSATYLPGNSPFSQKHYLAERIRNVERWSRLPQIMRQGPDIVEKGPFFGEVVHCMAENARCGLLQETVRVVMENVDFTNVKKFLDLGGGHGLYSIALTSLNENLQAFVFDLPPVTSETRYFIDKYGASRVDIIPGDFFKDDIGSDYDVIFSSFNPGGKVPSLIPKIAAALKPEGVFITRQVPDESMKSSPLMSLDWNLWTFEDVKKGSSGYSFENSVLFSEYIDMLGNHGLEVFRALDMTDGSRIVFAWKVTEGHHHHHH | not soluble
2 | MGHHHHHHSHMDWTLAMAQESGVWSEAGQLALHSYLEGLHTLASCAPAPSLSAPRLKSCIQCVESQLLVVIMSVCMLVCQLRNVCVCVHAHACMYLFPVPSGSGCHFRLSALSPATSVPQPEREMRCSWTPHCIWAAGPELV | not soluble
3 | MSLSVLNGYQLIISDVDGVIVREGDPIWENIQALRNIQNNGVKIIFVTNNSGFSRILLSRQLSYLGLKVTPDMIITSGLAAAIYMKEKLNVKSVFAVGEEGLIEELKNHGFLVFSSAESERILPDAVVMGLDRLSTYDKLSLAMRCISKGSKFIVTNMDRLWPAKDGLKLGAGALASSIIYALRRDPDFIAGKPNTWIVEIAMRISNVKKLDKILVIGDQIETDIQMGYNIGADTALVLTGISNVDDVDRSNVKPKYVVNTLLDLLEGHHHHHH | soluble
4 | MRDQMLPSIILFDGVCNFCNYWVQFIIKRDPQATFQFASLQSEVGQELLEKHSIDRSTDSVVLIMEGQAFVCSDAVLKIVAQLDSPIRWLKWAVIFPRFLRDFIYRIVARNRYKWFGKRDECQIPTKEQRSRFLLEHHHHHH | soluble
5 | MSLTPDLLNFKKGWMSILDEPGEPPSPSLTTTSTSQWKKHWFVLTDSSLKYYRDSTAEEADELDGEIDLRSCTDVTEYAVQRNYGFQIHTKDAVYTLSAMTSGIRRNWIEALRKTVRPTSAPDVTEGHHHHHH | soluble
6 | MLGSIACSMEFEDFDLYSYFYGLVKQIPEGYVTTYGDLAQALGDPIAARAVGYMLSINEDPDTIPCYRVVLHDGTVGNYTHPLGPMEKVRRLRADGIPVVDGMIENFDRYRFRDFKTDQPLRKMQQYQEYIARKYSESGAGEFRTVAAFDVSYEERRAFASMVIQDGSTIEAYVISDGINFPYIPGYLAFREFRFIKKLYRKADLLLIDGNGILHPRFAGLATHAGVLLDRASIGVAKHLTRSTRHQDIIYMQDRPVGVMIRKNMIVSPGNFIDVNGSADTVRKMWNDRYPWPLKLAHQLSTRHAETGGRVSEYSIESAHELHLEHHHHHH | soluble
7 | MKIDITDYNHADEILNPQLWKEIEETLLKMPLHVKASDQASKVGSLIFDPVGTNQYIKDELVPKHWKNNIPIPKRFDFLGTDIDFGKRDTLVEVQFSNYPFLLNNTVRSELFHKSNMDIDEEGMKVAIIITKGHMFPASNSSLYYEQAQNQLNSLAEYNVFDVPIRLVGLIEDFETDIDIVSTTYADKRYSRTITKRDTVKGKVIDTNTPNTRRRKRGTIVTY | soluble
8 | GHHHHHHHHHHSSGHIEGRHMKRMIALDGAQGEGGGQILRSALSLSMITGQPFTITSIRAGRAKPGLLRQHLTAVKAATEICGATVEGAELGSQRLLFRPGTVRGGDYRFAIGSAGSCTLVLQTVLPALWFADGPSRVEVSGGTDNPSAPPADFIRRVLEPLLAKIGIHQQTTLLRHGFYPAGGGVVATEVSPVASFNTLQLGERGNIVQMRGEVLLAGVPRHVAEREIATLAGSFSLHEQNIHNLPRDQGPGNTVSLEVESENITERFFVVGEKRVSAEVVAAQLVKEVKRYLASTAAVGEYLADQLVLPMALAGAGEFTVAHPSCHLLTNIAVVERFLPVRFSLIETDGVTRVSIE | soluble
9 | MANLEKKRVVVTGLGAITPIGNTLQDYWQGLMEGRNGIGPITRFDASDQACRFGGEVKDFDATQFLDRKEAKRMDRFCHFAVCASQQAINDAKLVINELNADEIGVLIGTGIGGLKVLEDQQTILLDKGPSRCSPFMIPMMIANMASGLTAINLGAKGPNNCTVTACAAGSNAIGDAFRLVQNGYAKAMICGGTEAAITPLSYAGFASARALSFRNDDPLHASRPFDKDRDGFVMGEGSGILILEELESALARGAKIYGEMVGYAMTCDAYHITAPVPDGRGATRAIAWALKDSGLKPEMVSYINAHGTSTPANDVTETRAIKQALGNHAYNIAVSSTKSMTGHLLGGSGGIEAVATVMAIAEDKVPPTINLENPDPECDLDYVPGQSRALIVDVALSNSFGFGGHNVTLAFKKYQ | soluble
10 | MKSPIVSANLVTRDNDKIAEKTGNIYESLVVISRRARQISIKIKEELNSKLAEFASKEDNLEEIFENREQIEISKYYERMPKPSTLATEEFLEDKVMFRHTGIASATPRKEDEK | not soluble
11 | LALLYEVTCLNKPGLVDPVDAGAHQDMDVFTFLESSVVLTPYFETFVQAGTELRHLPIEATFRTIRQVGLEAERAMFEATEGINTHKGAIFSLGIFLAVCGRLMIWETPCTLQLFQQTLQTMTQDLLADFENLATNELEKLTWGERLFVQHGLTGIRGEAQQGYPAVFEQGVPYYQKHQGTQQQKLIDTLLYLSLYVEDTNLIKRSQNVQIFEVYQPLIQEYFALGGTQTLRGTLCLERLNHLFKEKNWSIGGSADALILVV | not soluble
12 | MGSDKIHHHHHHMFAMAGFPDKIKTIKKGLDVPIAGEPRQEIDCCARPAKVALLGEEYVGLKPTLLVEVGDRVKKGQTLFEDKKAPGIGFTAPASGVVVEINRGERRVLQSVVIQVEGDEQVTFKAYSDLSRLSREAVQQNLAESGLWTALRTRPFSRVPLLDSEPAAIFVNAMDTNPLAADPRVIIAEQREAFAAGLEVLTYLTSGKIHLCHDAGEALPGADLARVESHRFAGVHPAGLVGTHIHFIAPASLERPVWHLGYQDVIAYGKLFLTGELYTDRVVALGGPTALNPRLLRTQLGAQLSTLVEGEIKPGSNRVVSGSVLAGHTAFGVHDYLGRFHQQISVLAEDAKHQLLPWVRGGADKFSITRAVTSRFKATKRLFDLTTHAGGSHRAMMAFGQLDRVMPLDILPTLLVRDLVVRDTDEAQALGALELDEEDLALCTFVCPGKYDFGRELRICLDIIEREG | not soluble
13 | MGSDKIHHHHHHMIFKEFGNKNMPTIVFLHGGGLSFWSFKEELSALKNSYRIVTPIIDGHGEDYNNTFISISNSAKHVINYIQESCNGHVFCICGLSLGAQILVEVLSLKHNISEYAVIESALVYPIKLSLNLMVAMNSLAYGLIKKKWFAKLQAKTLNVPQELFETYYKESSKMTKETLINITKSNGSYPMPNSICNTTASTLILVGERELSIMKKSAKLLNETIDNSILNIIPKAKHGEISLAYPKQYLDLLNKLFNSKK | not soluble
14 | MSLTPVLDKIDSDVSAATDRLLELLRIPSISTDPAYKADCDAAADWLVKDLNSIGIKAEKRETPGHPMVVGHVGEENTKGPHLLFYGHYDVQPVDPLNLWNTPPFEPQLEETPNGTVIRGRGASDDKGQLMTFVEACRAWQAVHGTLPCRITFFFEGEEESGSPSLIPFLEAAKEELSADIALICDTSMVARGVPSVASQLRGMMKDEFTLIGPKIDLHSGHYGGPGLNPLREISHIIASFHDPDTGAVAVEGFYEGVPEVPADILRQWEGCGFDEKDYLSNAGYTEAHGEKKYSTLEQQWARPTLEINGLWGGYQGAGTKTVIPSEAHCKITCRLVGDMDPADLRQKIRKHVEDRLPTDCTVKWDLDLDGAPAYVIDTTRPEFEAARGALTEEWNREAVFSGMGGSIPVAGYFKSILGMDAMLIGFANEDDAIHSPNEKYDLESFHKGIRSWARVLDALSKA | soluble
15 | MGSDKIHHHHHHMSDPIPAAPTDNGVPVSLRSSRGRGWHGFGASLLEIRAGTYRIPAAEHHRIGVHIGSPVRADCVCDGARVSRIQAHGDVDVIPAGLPGEWTDSADCRILHIALSDTFVRRTFDQLELKPSQAQIRRRLQVRDPRLQHIAWAMAAELEAEDASDPLYAESLCTALVARLADSQPAFREHRRTLAPKAAARVIDYVEANLERRMTLAELAALVSISVPHFKVLFRETLGMPVHQYVVRRRVERAKALLLEGRLGISQIALEAGFAHQSHMAHWMNRVLGATPTEIARSGARGGLRLAYDGEDR | not soluble
16 | MGSDKIHHHHHHMKRSKYQLGRIGRLTIDRIVSIGAYLDGGDTDILLPNRYLPSDAAPGMEVEVFVYHDNEGRLIATTMRPLVEVGQVALLHAVSVTDSGAYMEWGIHKDLFVPFREQTQLIREGGRYFVYAYIDHVSGKIVGSAKLSKHLGNIPPSYSPGDKVSALVYERIDPGYRMIVDHTHWGMIYSDTLPMPLAIGAQVKAFVIRLRDDGKIDLSLKPIGYDRIDSESERLLHMLQRRGGRLPIGDKSSPEEIMQHTGMSKKTFKMAVGMLYRRRLIRITPTAITLNETVSTPEA | not soluble
17 | MRKEVEQLALMGAMPDEADERITAALVDEYADLLGKIVKPVTLDEAHILIKLFPPTALYGIEWTLLHLIESVYSEIKSLEYRELINECNSTEFKKMLVQRLNNSQQKKITNEAG | not soluble
18 | MKRLLLIIICTLGILSCGVPKEVTVPDKHLNYKDNIVLYNEKPYTGKVKLKKIAEKEQFEEGYISVKDGKLEGITDFKNDAAKTHFKFDVKSGKFNGEYILKHPLIGDFVMNFENGELKELKGKFPNDINQDLIFDKDGNVNGLIEQGGKQLDFQGGVAVKDTLKVKMFLDTETKQKLVTEVYEGDKLMAREENILLFTVKDFTEELLPVTGLQ | not soluble
19 | MLSGTLFHKDVSIYSLFEELADKLNQKIEKRERLVKASRDVTYQSKKAIYLLHRAADEDLFSICSSAKEQLENIRQLICKLLLPELSAEEYFRFHSVFTIALQEYTEARLFLSYLSEGRALTLDEINAEISQQWQSLLENSEEARIY | soluble
20 | SNAKSAVTAQSILEKADEIRFPQDSFQVNVAIRTAAPDHAEDLYRYQVLSKGNENSIVMITEPASERGQAILMKGRDLWVFMPSVSQPIRLSLSQRLTGQVANGDIARANFTGDYHPQLLRNESIDDEDYYVLELTGIDRSVTYQKVLLWVNQSNFRPYKAEFYSVSGRLLKTSRYENFDNILGEMRPTRIIMEDALKSGEVSVLDYSDMKLRDLPDKIFTKDYLKRLE | soluble
21 | MSLSKQETEKVRVFALGGVGEIGKNMYGIEVDEDIIVIDAGLMFPDDDMLGVDIVIPDVSYLVENEERVRGIILTHGHEDHIGGLSYVLKKINVPVYATKLTLGLVEEKLKEAGIHRHAELRLIDSNSRIKLGNTPVSFFRVSHSIPDCVGVCVETSQGAIVHTGDFKFDQTPVDGKHADIGKMAAIGQKGVLCLMSDSTNAERPGTTKSEAEAGKGIKDVFARTKGRLIVTSFASNVHRIQQVIQAASATNRKLAVVGKSMVRVISIAGKLGYLKIPKDLLIDMDEVNKHKPEKVAILTTGSQGEPMSALTRMAKGAHRHITITPNDTVIIAATAIPGNETSVSAVIDQLYRIGAEVIYGSQAVHASGHGSQEELKLMLNLMRPKFFLPIHGEIRMQHAHQQLALQVGIKKERIYIVEKGEVIEFTKQQARRGPKVPSGHVLIDGLGVGDVGNIVLRDRRLLSKDGILVVVVTLNKKTNTIVSGPNIISRGFVYVRESEELLEKSNELVTSILQKCVTENVNEWSSLKSNIREGLSRYLFEKTKRRPMILPIIMEEGHHHHHH | soluble
22 | MASGTASTKIVIAGGFGSGKTTFVGAVSEIMPLRTEAMVTDASAGVDMLEATPDKRSTTVAMDFGRITLGEDLVLYLFGTPGQRRFWFMWDDLVRGAIGAIVLVDCRRLQDSFAAVDFFEHRNLPFLIAINEFDSAPRYPVSAVRDALTLPAHIPVINVDARNRRSATDALIAVSEYALATLSPLEHHHHHH | not soluble
